Reference: patent publication US20170247475A1 (Boehringer Ingelheim, published 2017)
Changes are numbered by the printed parent chain.

Assays:
VEGF = test: cell-based or functional assay
[1] = molecular target: T1, recombinant human VEGF165 (human, UniProt P15692-4 27-191); test: SPR Biacore T100, hVEGF165 on chip, Two State Reaction model
T1 construct: also called hVEGF165; rhVEGF165
Experimental: Samples are injected for 2 min and allowed to dissociate up to 20 min at a flow rate of 45 μI/min. In between sample injections, the chip surface is regenerated with 100 mM HCl. HBS-EP+(Hepes buffer pH7.4+EDTA) is used as running buffer. Binding curves are fitted using a Two State Reaction model by Biacore T100 Evaluation Software v2.0.1.
^{(a)}Heterogeneous binding curve resulting in no 1:1 fit, curves are fitted using a Two State Reaction model by Biacore T100 Evaluation Software v2.0.1
Target sequence in this assay (P15692 other isoform, or with tags, fused parts or gaps limits assumed): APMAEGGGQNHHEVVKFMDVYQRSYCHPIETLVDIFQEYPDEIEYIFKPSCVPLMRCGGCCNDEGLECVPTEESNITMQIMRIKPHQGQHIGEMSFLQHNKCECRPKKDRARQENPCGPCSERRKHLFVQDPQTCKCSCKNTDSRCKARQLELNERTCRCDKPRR

[2] = molecular target: T1, recombinant human VEGF165; test: KD1; SPR Biacore T100 on hVEGF165
Target sequence in this assay (P15692 other isoform, or with tags, fused parts or gaps limits assumed): as above

[3] = molecular target: T1, recombinant human VEGF165; test: AlphaScreen competition, 0.05 nM hVEGF165 and 0.05 nM hVEGFR2-Fc; blocked: hVEGFR2-Fc
Target sequence in this assay (P15692 other isoform, or with tags, fused parts or gaps limits assumed): as above

[4] = molecular target: T1, recombinant human VEGF165; test: AlphaScreen competition, 0.05 nM hVEGF165 and 0.05 nM hVEGFR1-Fc; blocked: hVEGFR1-Fc
Target sequence in this assay (P15692 other isoform, or with tags, fused parts or gaps limits assumed): as above

[5] = molecular target: T1, recombinant human VEGF165; test: AlphaScreen competition, 0.05 nM hVEGF165 and 0.05 nM hVEGFR2-Fc; blocked: hVEGFR2-Fc; remark: listed apart in the source
[6] = molecular target: T1, recombinant human VEGF165; test: AlphaScreen competition, 0.05 nM hVEGF165 and 0.05 nM hVEGFR1-Fc; blocked: hVEGFR1-Fc; remark: listed apart in the source
Target sequence in this assay (P15692 other isoform, or with tags, fused parts or gaps limits assumed): as above

[7] = molecular target: T1, recombinant human VEGF165; test: as above; remark: listed apart in the source
[8] = molecular target: T1, recombinant human VEGF165; test: ka1; SPR Biacore T100 on hVEGF165
Target sequence in this assay (P15692 other isoform, or with tags, fused parts or gaps limits assumed): as above

[9] = molecular target: T1, recombinant human VEGF165; test: competition AlphaScreen, blocking of hVEGF165 binding to hVEGFR2-Fc
[10] = molecular target: T1, recombinant human VEGF165; test: competition AlphaScreen, blocking of hVEGF165 binding to hVEGFR1-Fc
[11] = molecular target: T1, recombinant human VEGF165; test: AlphaScreen competition, 0.05 nM hVEGF165 and 0.05 nM hVEGFR1-Fc; blocked: hVEGFR1-Fc; remark: listed apart in the source
[12] = molecular target: T1, recombinant human VEGF165; test: as above; remark: listed apart in the source
[13] = molecular target: T1, recombinant human VEGF165; test: kd1; SPR Biacore T100 on hVEGF165
[14] = molecular target: T1, recombinant human VEGF165; test: competition AlphaScreen, blocking of hVEGF165 binding to hVEGFR1-Fc; remark: listed apart in the source
[15] = molecular target: T1, recombinant human VEGF165; test: AlphaScreen competition, 0.05 nM hVEGF165 and 0.05 nM hVEGFR1-Fc; blocked: hVEGFR1-Fc; remark: listed apart in the source

B1: VEGFBII23B04 (VHH)
VHH: EVQLVESGGGLVQTGDSLRLSCEVSGRTFSSYSMGWFRQAQGKEREFVVAISKGGYKYDSVSLEGRFTISKDNAKNTVYLQINSLKPEDTAVYYCASSRAYGSSRLRLADTYEYWGQGTQVTVSS
notes: also called VEGFBII23B4; VEGFBII23B04 (wt)
With B1 the “% inhibition, VEGF HUVEC proliferation assay” value (VEGF) was 91%, the “IC50 (nM), VEGF HUVEC proliferation assay” value (VEGF) was 0.36 nM and the Kd [1] was 0.7 nM. The kd2 [1] was 0.00024 s⁻¹.

B2: VEGFBII038 (VHH)
VHH: B1 VHH with E1D, T14P, D16G, E23A, V24A, Q41P, S60A, K71R, K86R, Q120L
notes: also called VEGFBII0038; VEGFBII00038
With B2 the Kd [2] was 0.75 nM, the “IC50 (read off the curve)” value [3] was about 0.2 nM and the “IC50 (read off the curve)” value [4] was about 0.5 nM. The “IC50 (read off the curve)” value [5] was about 0.5 nM, the “IC50 (read off the curve)” value [6] was about 0.5 nM and the “IC50 (read off the curve)” value [7] was about 0.8 nM. For the same binder, the kon [8] was 260000 M⁻¹ s⁻¹, the “IC50 (read off the curve)” value [9] was about 0.4 nM and the “IC50 (read off the curve)” value [10] was about 0.4 nM. The “IC50 (read off the curve)” value [11] was about 0.8 nM, the “IC50 (read off the curve)” value [12] was about 0.8 nM and the koff [13] was 0.013 s⁻¹. The “IC50 (read off the curve)” value [14] was about 0.4 nM and the “IC50 (read off the curve)” value [15] was about 0.3 nM.
